Measurements as given in patent US20110039785A1, “POLYPEPTIDE-NUCLEIC ACID CONJUGATES AND USES THEREOF” (Angiochem Inc., priority 2007, published 2011).

Key:
[1] = test system: liver, lung, kidney, spleen, and muscle cells; conditions: cited from earlier work
BBB = test: in situ brain perfusion in mice; assay type: in vivo; conditions: 125 nM radiolabeled conjugate; uptake into the brain; FIG. 20
Protocol: Transport of the conjugates was measured in vivo using in situ brain perfusion in mice. […] The amount present in the brain parenchyma was determined following brain capillary depletion (FIG. 6).
In situ perfusions using 125 nM of the cleavable and non-cleavable conjugates were performed, and uptake into the brain was measured. Inulin was used as a control. […] Kin values were measured for each protein: The cleavable conjugated has a Kin value of 1.1×10^−4 ml/s/g, the non-cleavable has a Kin value of 4.7×10^−5 ml/s/g, and inulin has a Kin value of 2.1×10^−5 ml/s/g.
Partition into brain compartments of the siRNA following capillary depletion was also measured. This perfusion was also performed at 125 nM.
In situ perfusions were also performed using fluorescent siRNA.

| Substance | transport into cells of tissues [1] | Kin (BBB) |
| --- | --- | --- |
| T F F Y G G S R G R R N N F R T E E Y (TFFYGGSRGRRNNFRTEEY) [AngioPep-7] | efficiently transported into liver, lung, kidney, spleen, and muscle cells |  |
| inulin |  | 2.1e-05 mL/s/g |
